Results on one molecule are retold here after US12551573B2, “Compositions and methods for the targeting of PCSK9” (Scribe Therapeutics Inc., priority 2022, dated 2026).

For series [1], the system named is human B2M locus. The series is described as follows: Editing (indel rate by NGS) at the B2M locus in HepG2 cells treated with LNPs. The format is cell-based. The note with it: LNPs with CasX 491 mRNA + gRNA spacer 7.9 (v1), highest dose of 250 ng. The protocol: ˜50,000 HepG2 cells, cultured in DMEM/F-12 media containing 10% FBS and 1% PenStrep, were seeded per well in a 96-well plate. The next day, seeded cells were treated with varying concentrations of LNPs, which were prepared in six 2-fold serial dilutions starting at 250 ng. These LNPs were formulated to encapsulate CasX 491 mRNA and a B2M-targeting gRNA incorporating either scaffold variant 174 or 316 with spacer 7.9 (v1; see Table 26). […] Briefly, for editing assessment, amplicons were amplified from 200 ng of extracted gDNA with primers targeting the human B2M locus and processed by NGS using similar methods as described in Example 7.

The test system of series [2] is 6.7/6.8 target dsDNA. The experiment in a line: In vitro cleavage assay of CasX 491 RNPs: competent (active) fraction. Format: biochemical. The note with it: spacer 6.7 or 6.8, v1; equimolar RNP and DNA target. The protocol:
(§1) Double-stranded DNA (dsDNA) targets were formed by mixing the oligos in a 1:1 ratio in 1× cleavage buffer (20 mM Tris HCl PH 7.5, 150 mM NaCl, 1 mM TCEP, 5% glycerol, 10 mM MgCl2), following by heating to 95° C. for 10 minutes, and then allowing the solution to cool to room temperature. CasX ribonucleoproteins (RNPs) were reconstituted with CasX 491 and the indicated gRNAs at a final concentration of 1 μM with 1.2-fold excess of the indicated gRNA in 1x cleavage buffer. RNPs were allowed to form at 37° C. for 10 minutes.
To determine the competent fraction formed by each gRNA, cleavage reactions were prepared with final RNP concentrations of 100 nM and final target concentrations of 100 nM. Reactions were carried out at 37° C. and initiated by the addition of the labeled target substrate (Table 27). Aliquots were taken at 0.5, 1, 2, 5, 10, and 30 minutes and quenched by adding an equal volume of 95% formamide with 25 mM EDTA. Samples were denatured by heating at 95° C. for 10 minutes and resolved on a 10% urea-PAGE gel. Gels were imaged and quantified as above. […] The plateau of each fit was determined and reported as the active fraction for each RNP in Table 30.

Series [3] concerns human PCSK9 locus. The experiment in a line: Secreted PCSK9 levels in HepG2 cells transfected with CasX 491 mRNA and gRNA. Format: cell-based. To be noted: CasX 491 mRNA + v1 gRNAs, spacers 6.7 and 6.8, 28 hours. Here is the method:
(§2) Editing at the PCSK9 locus and consequential effects on secreted PCSK9 levels were assessed for conditions using CasX 491 mRNA co-delivered with a PCSK9-targeting gRNA with scaffold variant 174 compared to conditions where a PCSK9-targeting gRNA with scaffold variant 316 was used. 100 ng of in vitro transcribed mRNA coding for CasX 491 with a P2A and mScarlet fluorescent protein was transfected into HepG2 cells with version 1 (v1) of gRNAs 174-6.7, 174-6.8, 316-6.7, and 316-6.8 (see Table 26) using Lipofectamine™. After a media change, the following were harvested at 28 hours post-transfection: 1) transfected cells were harvested for editing assessment at the PCSK9 locus by NGS (next generation sequencing); and 2) media supernatant was harvested to measure secreted PCSK9 protein levels by ELISA. For editing analysis by NGS, amplicons were amplified from 200 ng of extracted gDNA with a set of primers targeting the PCSK9 locus and processed by NGS (described below). Secreted PCSK9 levels in the media supernatant were also analyzed using a fluorescence resonance energy transfer-based immunoassay from CISBio following the manufacturer's instructions. […]
(§3) V1 through v6 variants of chemically-modified PCSK9-targeting gRNAs (Table 26) were assessed for their effects on editing potency and consequential effects on secreted PCSK9 levels in vitro. […]

The subject of series [4] is human PCSK9 locus. The series is described as follows: Editing (indel rate by NGS) at the PCSK9 locus in HepG2 cells transfected with CasX 491 mRNA and gRNA. The format is cell-based. To be noted: CasX 491 mRNA + v1 gRNAs, spacers 6.7 and 6.8, 28 hours. The protocol: as §2, §3
The subject of series [5] is 6.7/6.8 target dsDNA. The series is described as follows: In vitro cleavage assay of CasX 491 RNPs: cleavage rate (kcleave). The format is biochemical. The note with it: CasX RNP, 20-fold excess RNP. The protocol:
as §1
The effects of various structural and chemical modifications to the gRNA scaffold on the cleavage rate of CasX 491 RNPs were determined. Cleavage reactions were prepared with final RNP concentrations of 200 nM and final target concentrations of 10 nM, and reactions were carried out at 16° C. and initiated by the addition of the labeled target DNA substrate (Table 27). Aliquots of reactions were taken at 0.25, 0.5, 1, 2, 5, and 10 minutes and quenched by adding an equal volume of 95% formamide with 20 mM EDTA. Samples were denatured at 95° C. for 10 minutes and resolved on a 10% urea-PAGE gel. Gels were imaged on a Typhoon™ laser-scanner platform and quantified using ImageQuant™ TL 8.2 image analysis software (Cytiva™). The apparent first-order rate constant of non-target strand cleavage (kcleave−) was determined for each CasX:gRNA combination.

Series [6] concerns B2M locus. The experiment in a line: B2M knockout (HLA flow cytometry) in HEK293 cells transduced with AAV. The note with it: spacer 7.37, MOI 1E4, 3E3, 1E3 vg/cell, 5 days. Format: cell-based, human.

B1: scaffold 316: chimeric gRNA scaffold, SEQ ID NO: 1746 (nucleic acid)
guide: ACUGGCGCUUCUAUCUGAUUACUCUGAGCGCCAUCACCAGCGACUAUGUCGUAGUGGGUAAAGCUCCCUCUUCGGAGGGAGCAUCAGAG
modifications: listed as RNA, chemistry not fully specified
B1: the “editing level at the B2M locus vs scaffold 174” value in series [1] is “nearly two-fold higher”. The “active fraction of CasX RNPs, higher than scaffold 174” value in series [2] is recorded as 25-30%. Besides, the “reduction of PCSK9 secretion vs scaffold 174” value in series [3] was “more effective reduction of PCSK9 secretion”. Moreover, the “increase in editing rate at the PCSK9 locus over scaffold 174” value in series [4] is recorded as roughly 10 percentage point. In addition, the “cleavage rate vs scaffold 174” value in series [5] (spacer 6.7, v1) is “marginally faster cleavage”; in series [5] (spacer 6.8, v1), “nearly twice as quickly”. In series [6], the “editing at the B2M locus vs scaffold 235” value is recorded as “appeared to improve editing at the B2M locus”.
